Data published in patent US20080300206.

Legend:
[1] = biological target: alpha synuclein familial mutant A30P
[2] = biological target: alpha synuclein familial mutant A53T
[3] = biological target: alpha synuclein familial mutant E46K
[4] = biological target: recombinant wild-type human alpha-synuclein

Sequence of beta synuclein, Q16143 (Q16143 whole entry): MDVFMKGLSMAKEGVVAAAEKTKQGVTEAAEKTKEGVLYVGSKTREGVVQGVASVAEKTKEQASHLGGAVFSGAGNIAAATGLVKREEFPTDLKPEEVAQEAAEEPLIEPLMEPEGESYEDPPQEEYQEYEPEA

B1: Polo like kinase 2 (PLK2) (protein)
chain: MELLRTITYQPAASTKMCEQALGKGCGADSKKKRPPQPPEESQPPQSQAQVPPAAPHHHHHHSHSGPEISRIIVDPTTGKRYCRGKVLGKGGFAKCYEMTDLTNNKVYAAKIIPHSRVAKPHQREKIDKEIELHRILHHKHVVQFYHYFEDKENIYILLEYCSRRSMAHILKARKVLTEPEVRYYLRQIVSGLKYLHEQEILHRDLKLGNFFINEAMELKVGDFGLAARLEPLEHRRRTICGTPNYLSPEVLNKQGHGCESDIWALGCVMYTMLLGRPPFETTNLKETYRCIREARYTMPSSLLAPAKHLIASMLSKNPEDRPSLDDIIRHDFFLQGFTPDRLSSSCCHTVPDFHLSSPAKNFFKKAAAALFGGKKDKARYIDTHNRVSKEDEDIYKLRHDLKKTSITQQPSKHRTDEELQPPTTTVARSGTPAVENKQQIGDAIRMIVRGTLGSCSSSSECLEDSTMGSVADTVARVLRGCLENMPEADCIPKEQLSTSFQWVTKWVDYSNKYGFGYQLSDHTVGVLFNNGAHMSLLPDKKTVHYYAELGQCSVFPATDAPEQFISQVTVLKYFSHYMEENLMDGGDLPSVTDIRRPRLYLLQWLKSDKALMMLFNDGTFQVNFYHDHTKIIICSQNEEYLLTYINEDRISTTFRLTTLLMSGCSSELKNRMEYALNMLLQRCN
PLK2 activity in vitro, autoradiography [1]: the mutant alpha-synucleins were phosphorylated more at a given concentration (especially at lower concentrations) than WT | PLK2 activity in vitro, autoradiography [2]: the mutant alpha-synucleins were phosphorylated more at a given concentration (especially at lower concentrations) than WT | PLK2 activity in vitro, autoradiography [3]: the mutant alpha-synucleins were phosphorylated more at a given concentration (especially at lower concentrations) than WT | PLK2 activity in vitro, autoradiography (beta synuclein, Q16143): minimally against beta synuclein | Fold Change in Percent Synuclein Phosphorylation, HEK-293 overexpression [4]: 21.2 fold | PLK2 activity in vitro, autoradiography [4]: PLK2 was found to be more active against wild-type alpha synuclein than beta synuclein | Proportion of total synuclein that is phoshorylated at ser-129, HEK-293 overexpression, ELISA [4]: 42.3% | S129 phosphorylation, immunoblot (11A5), kinase:AS 1:200 molar [4]: Prominent signals came from GRK6, CKI, CKII and PLK2 | S129 phosphorylation, immunoblot (11A5), rank of signal [4]: CKI>GRK6>PLK2>GRK4>GRK5>GRK2 | extent of S129 phosphorylation by mass spectrometry after co-expression in bacteria [4]: more than 95% phosphorylated | in vitro biochemical assay, phosphorylation of synuclein [4]: PLK2 and PLK3 having extremely robust phosphorylation of synuclein | in vitro kinase reaction, phosphorylation of alpha-synuclein at serine 129 [4]: capable of phosphorylating alpha-synuclein specifically at serine 129 and did not phosphorylate serine 87 in vitro | phospho ser-129 level in vitro, normalised for molarity [4]: roughly equivalent levels of phospho ser-129 between CKI, GRK6 and PLK2

B2: CDC7 cell division cycle 7-like 1 (CDC7L1) (protein)
chain: MEASLGIQMDEPMAFSPQRDRFQAEGSLKKNEQNFKLAGVKKDIEKLYEAVPQLSNVFKIEDKIGEGTFSSVYLATAQLQVGPEEKIALKHLIPTSHPIRIAAELQCLTVAGGQDNVMGVKYCFRKNDHVVIAMPYLEHESFLDILNSLSFQEVREYMLNLFKALKRIHQFGIVHRDVKPSNFLYNRRLKKYALVDFGLAQGTHDTKIELLKFVQSEAQQERCSQNKSHIITGNKIPLSGPVPKELDQQSTTKASVKRPYTNAQIQIKQGKDGKEGSVGLSVQRSVFGERNFNIHSSISHESPAVKLMKQSKTVDVLSRKLATKKKAISTKVMNSAVMRKTASSCPASLTCDCYATDKVCSICLSRRQQVAPRAGTPGFRAPEVLTKCPNQTTAIDMWSAGVIFLSLLSGRYPFYKASDDLTALAQIMTIRGSRETIQAAKTFGKSILCSKEVPAQDLRKLCERLRGMDSSTPKLTSDIQGHASHQPAISEKTDHKASCLVQTPPGQYSGNSFKKGDSNSCEHCFDEYNTNLEGWNEVPDEAYDLLDKLLDLNPASRITAEEALLHPFFKDMSL
in vitro kinase reaction, phosphorylation of alpha-synuclein [4]: shown to be incapable of directly phosphorylating alpha-synuclein

B3: IKBKB (protein)
chain: MSWSPSLTTQTCGAWEMKERLGTGGFGNVIRWHNQETGEQIAIKQCRQELSPRNRERWCLEIQIMRRLTHPNVVAARDVPEGMQNLAPNDLPLLAMEYCQGGDLRKYLNQFENCCGLREGAILTLLSDIASALRYLHENRIIHRDLKPENIVLQQGEQRLIHKIIDLGYAKELDQGSLCTSFVGTLQYLAPELLEQQKYTVTVDYWSFGTLAFECITGFRPFLPNWQPVQWHSKVRQKSEVDIVVSEDLNGTVKFSSSLPYPNNLNSVLAERLEKWLQLMLMWHPRQRGTDPTYGPNGCFKALDDILNLKLVHILNMVTGTIHTYPVTEDESLQSLKARIQQDTGIPEEDQELLQEAGLALIPDKPATQCISDGKLNEGHTLDMDLVFLFDNSKITYETQISPRPQPESVSCILQEPKRNLAFFQLRKVWGQVWHSIQTLKEDCNRLQQGQRAAMMNLLRNNSCLSKMKNSMASMSQQLKAKLDFFKTSIQIDLEKYSEQTEFGITSDKLLLAWREMEQAVELCGRENEVKLLVERMMALQTDIVDLQRSPMGRKQGGTLDDLEEQARELYRRLREKPRDQRTEGDSQEMVRLLLQAIQSFEKKVRVIYTQLSKTVVCKQKALELLPKVEEVVSLMNEDEKTVVRLQEKRQKELWNLLKIACSKVRGPVSGSPDSMNASRLSQPGQLMSQPSTASNSLPEPAKKSEELVAEAHNLCTLLENAIQDTVREQDQSFTALDWSWLQTEEEEHSCLEQAS
in vitro kinase reaction, phosphorylation of alpha-synuclein [4]: shown to be incapable of directly phosphorylating alpha-synuclein

B4: PLK4 (protein)
chain: MATCIGEKIEDFKVGNLLGKGSFAGVYRAESIHTGLEVAIKMIDKKAMYKAGMVQRVQNEVKIHCQLKHPSILELYNYFEDSNYVYLVLEMCHNGEMNRYLKNRVKPFSENEARHFMHQIITGMLYLHSHGILHRDLTLSNLLLTRNMNIKIADFGLATQLKMPHEKHYTLCGTPNYISPEIATRSAHGLESDVWSLGCMFYTLLIGRPPFDTDTVKNTLNKVVLADYEMPSFLSIEAKDLIHQLLRRNPADRLSLSSVLDHPFMSRNSSTKSKDLGTVEDSIDSGHATISTAITASSSTSISGSLFDKRRLLIGQPLPNKMTVFPKNKSSTDFSSSGDGNSFYTQWGNQETSNSGRGRVIQDAEERPHSRYLRRAYSSDRSGTSNSQSQAKTYTMERCHSAEMLSVSKRSGGGENEERYSPTDNNANIFNFFKEKTSSSSGSFERPDNNQALSNHLCPGKTPFPFADPTPQTETVQQWFGNLQINAHLRKTTEYDSISPNRDFQGHPDLQKDTSKNAWTDTKVKKNSDASDNAHSVKQQNTMKYMTALHSKPEIIQQECVFGSDPLSEQSKTRGMEPPWGYQNRTLRSITSPLVAHRLKPIRQKTKKAVVSILDSEEVCVELVKEYASQEYVKEVLQISSDGNTITIYYPNGGRGFPLADRPPSPTDNISRYSFDNLPEKYWRKYQYASRFVQLVRSKSPKITYFTRYAKCILMENSPGADFEVWFYDGVKIHKTEDFIQVIEKTGKSYTLKSESEVNSLKEEIKMYMDHANEGHRICLALESIISEEERKTRSAPFFPIIIGRKPGSTSSPKALSPPPSVDSNYPTRERASFNRMVMHSAASPTQAPILNPSMVTNEGLGLTTTASGTDISSNSLKDCLPKSAQLLKSVFVKNVGWATQLTSGAVWVQFNDGSQLVVQAGVSSISYTSPNGQTTRYGENEKLPDYIKQKLQCLSSILLMFSNPTPNFH
Fold Change in Percent Synuclein Phosphorylation, HEK-293 overexpression [4]: 1 fold | Proportion of total synuclein that is phoshorylated at ser-129, HEK-293 overexpression, ELISA [4]: 1.9% | in vitro biochemical assay, phosphorylation of synuclein [4]: PLK4 exhibiting no ability to phosphorylate synuclein

B5: MET (protein)
chain: KKRKQIKDLGSELVRYDARVHTPHLDRLVSARSVSPTTEMVSNESVDYRATFPEDQFPNSSQNGSCRQVQYPLTDMSPILTSGDSDISSPLLQNTVHIDLSALNPELVQAVQHVVIGPSSLIVHFNEVIGRGHFGCVYHGTLLDNDGKKIHCAVKSLNRITDIGEVSQFLTEGIIMKDFSHPNVLSLLGICLRSEGSPLVVLPYMKHGDLRNFIRNETHNPTVKDLIGFGLQVAKGMKYLASKKFVHRDLAARNCMLDEKFTVKVADFGLARDMYDKEYYSVHNKTGAKLPVKWMALESLQTQKFTTKSDVWSFGVLLWELMTRGAPPYPDVNTFDITVYLLQGRRLLQPEYCPDPLYEVMLKCWHPKAEMRPSFSELVSRISAIFSTFIGEHYVHVNATYVNVKCVAPYPSLLSSEDNADDEVDTRPASFWETS
in vitro kinase reaction, phosphorylation of alpha-synuclein [4]: shown to be incapable of directly phosphorylating alpha-synuclein
